The values that follow come from publication PMC7429351, “Comparison of ligand binding and conformational stability of human calmodulin with its homolog from the malaria parasite Plasmodium falciparum” (FASEB BioAdvances, 2020).

Where “and” joins values, the source holds several entries; their conditions need not be identical. Equal entries are not always repeated. Where two headings read alike, the source gives them in different places.

One may read the EC50 as the concentration needed to bring the measured effect to its halfway point. One may read the IC50 as the concentration that inhibits the measured activity by half.

For series [1], the target named is T1, human CaM (Homo sapiens, UniProt P0DP23).
T1 construct: properties of the whole protein can be explored with differential scanning calorimetry; made in house; host or cells: E coli
Kind of series: ANS binding fluorescence, human CaM. The following applies: 10 μmol/L ANS.

Series [2] has as its target T2, Pf CaM (Plasmodium falciparum, UniProt P62203).
T2 construct: properties of the whole protein can be explored with differential scanning calorimetry; made in house; host or cells: E coli
Kind of series: ANS binding fluorescence, Pf CaM. The following applies: 10 μmol/L ANS. The procedure:
(§1) Spectra were collected using a Jobin Yvon Fluoromax‐3 spectrofluorometer at 25°C in the standard assay buffer containing either 1 mmol/L EGTA or 1 mmol/L CaCl2. Spectra were recorded three times, averaged, and corrected by subtracting the appropriate blank. Tyrosine fluorescence was excited at 274 nm, the emission was detected between 285 and 370 nm, and the intensities were recorded at 303 nm. In ANS binding assays, 10 μmol/L of ANS (8‐anilinonaphtalene‐1‐sulfonic acid, Fluka, 10417) was excited at 388 nm in the presence of 2 μmol/L CaM in standard assay buffer, and the emission was monitored from 410 to 600 nm. In experiments with dansyl‐labeled CaM, the fluorophore was excited at 340 nm, and the emission was monitored from 400 to 600 nm.

Series [3] can be described thus: Differential scanning fluorimetry (nanoDSF, intrinsic fluorescence). It is filed as physicochemical. The following applies: DSF, 5°C/min, C-domain Tyr fluorescence. As to the method:
Denaturation curves were determined by detecting intrinsic protein fluorescence as a function of temperature using the Prometheus instrument (NanoTemper Technologies). Protein samples at 1.0‐1.5 mg/mL were heated at a scan rate of 5°C/min up to 110°C in the standard assay buffer using the designated set and capillaries. Data analysis was performed with the built‐in analysis software.

Series [4] in a line: CD melting curves at 222 nm. The settings on record: CD 222 nm. It is filed as physicochemical. As to the method:
CD spectra were recorded on Jasco J‐720 and J‐810 spectropolarimeters (Jasco) using quartz cuvettes with pathlengths of 1 mm in the far‐UV and 1 cm in the near‐UV range. Samples were measured in the standard assay buffer complemented with 1 mmol/L EGTA or CaCl2 at a protein concentration of 5‐8 μmol/L in the far‐UV and 210 μmol/L in the near‐UV. Spectra were recorded at least three times at a scan speed of 20 nm/min using a bandwidth and response time of 1 nm and 4 seconds, respectively. Secondary structure content was estimated using the BeStSel method available at http://bestsel.elte.hu. ^24 Melting curves were measured in standard assay buffer or 25 mmol/L phosphate, pH 7.0, in the presence of 1 mmol/L EGTA or saturating levels of CaCl2 monitoring the ellipticity at 222 nm for secondary structure changes or at 280 nm to monitor the signal of Tyr residues. A heating rate of 1 or 2°C/min was used. In a well‐sealed 1 mm‐cell, heating up to 110°C was possible.

The nature of series [5]: Differential scanning calorimetry thermal denaturation. The format is physicochemical. The settings on record: DSC; for T m1 / ΔH1 / ΔHv1: first transition; for T m1 / T m2: 1°C/min; for ΔH1 / ΔH2: calorimetric enthalpy; for ΔHv1 / ΔHv2: van't Hoff enthalpy; for T m2 / ΔH2 / ΔHv2: second transition. The procedure: Thermograms were measured in the standard assay buffer complemented with 1 mmol/L EGTA or CaCl2 using a VP‐DSC microcalorimeter (MicroCal). Protein samples at 0.75 mg/mL were heated at a scan rate of 1°C/min with no feedback. Data analysis was performed with the Origin software provided by MicroCal.

A further series relates to bovine PDE. Kind of series: PDE activation by CaM. It is filed as biochemical. The following applies: 150 nmol/L CaM, 1 mmol/L CaCl2.
The target in another series is T3, human MLCK (Homo sapiens, UniProt Q15746).
T3 construct: GST; purchased Sigma M9197
Kind of series: MLCK activation by CaM (ADP-Glow). The format is biochemical. The following applies: 30 minutes, room temperature. As to the method:
Myosin light chain kinase (MLCK) was purchased from Sigma (M9197, human, recombinant, GST‐tagged). Enzyme activity was measured in standard buffer complemented with 0.5 mmol/L CaCl2, 2.5 mmol/L MgCl2, and 0.1 mg/mL BSA. When measuring activation by CaM, 20 μL reaction mixtures contained 3.5 ng/μL MLCK, 0.1 mg/mL MLCK substrate (Sigma SCP0196), 50 μmol/L ATP, 0.5 mmol/L DTT, and various amounts of CaM. Samples were incubated for 30 minutes at room temperature then ADP formed during the kinase reaction was detected using the ADP‐Glow Kinase Assay kit (Promega) according to the manufacturer's instructions. Luminescence values proportional to ADP concentration were normalized to maximal intensities obtained at saturating CaM concentrations.
On the technique in general: ADP-Glo turns the ADP formed in a reaction into a luminescent signal.

A further series has as its target T4, bovine brain CaN (Bos taurus, UniProt P48452).
T4 construct: purchased Promega V6361; host or cells: bovine brain
Kind of series: Calcineurin activation by CaM. The format is biochemical. The following applies: PNPP substrate, 28°C. The procedure: (§2) Calcineurin (PPase‐2B, CaN) was purchased from Promega (V6361, isolated from bovine brain). Dephosphorylation of the substrate p‐nitrophenyl phosphate (PNPP, Sigma, 1040) was followed by monitoring the increase in absorbance at 405 nm using a Perkin Elmer EnSpire microplate reader. The CaN activity was assayed by measuring the initial velocities at 28°C in 50 mmol/L Tris, pH 7.5 containing 0.001 unit/μL CaN, 0.1 mg/mL BSA, 20 mmol/L PNPP, 1 mmol/L NiCl2, and various amounts of CaM to determine dose‐response curves for CaN activation by CaM.

Series [6] deals with T2, Pf CaM. Kind of series: biochemical. The format is binding. The following applies: ITC. From the text:
(§3) Titration curves were fitted with the models provided by the built‐in Origin software (MicroCal.).

The target in series [7] is T2, Pf CaM. Kind of series: Calcineurin activity assay, inhibition of Pf CaM function. It is filed as biochemical. The following applies: for inhibition of Pf CaM function in CaN activity assay: screen of selected Malaria Box compounds. As to the method:
as §2

The target in series [8] is T5, human CaM (dansyl-labeled) (Homo sapiens, UniProt P0DP23).
T5 construct: properties of the whole protein can be explored with differential scanning calorimetry; made in house; host or cells: E coli
Kind of series: Dansyl-CaM fluorescence titration, human CaM. The format is binding. The settings on record: hyperbolic fit. The procedure:
as §1

In series [9] the target is T1, human CaM. Kind of series: Isothermal titration calorimetry, ligand titrated with human CaCaM. The format is binding. The following applies: ITC, 25°C, 1 mmol/L CaCl2, one set of sites model.
From the text: as §3
On the technique in general: ITC needs no label: the signal is the heat of the interaction.

The target of series [10] is T1, human CaM. Kind of series: Calcineurin activity assay, inhibition of human CaM function. The format is biochemical. The procedure:
as §2

Series [11] relates to 3D7 chloroquine sensitive but sulfadoxine resistant strain of P falciparum. The arrangement: method as in earlier work. The following applies: blood stage, 3D7 strain; ref MMV website (https://www.mmv.org/mmv-open/malaria-box/malaria-box-supporting-information); cited from earlier work.
The next series has as its target T6, dansyl-labeled Pf CaM (Plasmodium falciparum, UniProt P62203).
T6 construct: properties of the whole protein can be explored with differential scanning calorimetry; made in house; host or cells: E coli
Kind of series: Dansyl-CaM fluorescence titration, Pf CaM. The format is binding. The following applies: hyperbolic fit. As to the method: as §1

T4 sequence (P63099 2-170 partner limits assumed, other chains not shown): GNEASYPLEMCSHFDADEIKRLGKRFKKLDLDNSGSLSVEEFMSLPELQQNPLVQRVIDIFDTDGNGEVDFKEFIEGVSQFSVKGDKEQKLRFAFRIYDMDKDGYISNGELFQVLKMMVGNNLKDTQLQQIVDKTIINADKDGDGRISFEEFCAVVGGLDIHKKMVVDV
T3 sequence (Q15746 1425-1771 limits assumed): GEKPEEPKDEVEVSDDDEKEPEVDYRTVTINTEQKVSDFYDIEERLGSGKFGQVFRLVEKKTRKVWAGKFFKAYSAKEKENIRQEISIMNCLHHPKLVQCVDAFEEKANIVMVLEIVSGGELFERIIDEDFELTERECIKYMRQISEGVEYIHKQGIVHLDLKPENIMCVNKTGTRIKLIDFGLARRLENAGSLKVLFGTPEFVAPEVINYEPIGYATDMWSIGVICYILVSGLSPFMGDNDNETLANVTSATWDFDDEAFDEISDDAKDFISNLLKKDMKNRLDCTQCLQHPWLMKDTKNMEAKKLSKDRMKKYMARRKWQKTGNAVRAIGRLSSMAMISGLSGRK

For `O=S(=O)(O)c1cccc2cccc(Nc3ccccc3)c12` [ANS, 8‐anilinonaphthalene‐1‐sulfonic acid], the “ANS binding (fluorescence)” value on human CaM [1] (2 μmol/L CaCaM) is recorded as “remarkable ANS binding”; at human CaM [1] (2 μmol/L apoprotein), “no ANS binding”; at Pf CaM [2] (2 μmol/L CaCaM, compared with human CaCaM), “approximately twofold higher fluorescence intensity”; on Pf CaM [2] (2 μmol/L apoprotein), “no ANS binding”.

Consider “Pf apoCaM: Plasmodium falciparum calmodulin, Ca2+-free apo form”, for which the T m in series [3] came to 51.2 ± 0.6 °C. The molecule also came in with a T m in [4] (in phosphate buffer of low ionic strength) of 51.2 ± 0.1 °C. Also, the T m in [4] (standard assay buffer) came to 54.4 ± 0.2 °C. Moreover, in [5], the “T m1” value was found to be 54.7 ± 0.2 °C, the ΔH1 was 41.2 ± 1.2 kcal/mol, the ΔHv1 worked out at 48.1 ± 0.4 kcal/mol and the “T m2” value amounted to 64.3 ± 0.1 °C. In series [5], this molecule yielded a ΔH2 of 33.4 ± 1.2 kcal/mol and a ΔHv2 of 53.5 ± 0.6 kcal/mol.

On to “Pf CaM: Recombinant Plasmodium falciparum calmodulin (Uniprot P62203) expressed in E coli”, for which the T m in series [3] is ~ 51 °C. Moreover, the “increase of PDE activity” value in the series on bovine PDE is recorded as “the same activation effect”. In the series with human MLCK, this molecule gave an EC50 of approximately 0.015 µM. In the series with bovine brain CaN, the EC50 came out at 0.001 µM and the “activation by CaM (elevation of the basal activity)” value was found to be 2.1 fold.

Turning to `CC[C@H](C)[C@H](NC(=O)CN)C(=O)NCC(=O)N[C@@H](C)C(=O)N[C@H](C(=O)N[C@@H](CC(C)C)C(=O)N[C@@H](CCCCN)C(=O)N[C@H](C(=O)N[C@@H](CC(C)C)C(=O)N[C@H](C(=O)N[C@H](C(=O)NCC(=O)N[C@@H](CC(C)C)C(=O)N1CCC[C@H]1C(=O)N[C@@H](C)C(=O)N[C@@H](CC(C)C)C(=O)N[C@H](C(=O)N[C@@H](CO)C(=O)N[C@@H](Cc1c[nH]c2ccccc12)C(=O)N[C@H](C(=O)N[C@@H](CCCCN)C(=O)N[C@@H](CCCNC(=N)N)C(=O)N[C@@H](CCCCN)C(=O)N[C@@H](CCCNC(=N)N)C(=O)N[C@@H](CCC(N)=O)C(=O)N[C@@H](CCC(N)=O)C(N)=O)[C@@H](C)CC)[C@@H](C)CC)[C@@H](C)O)[C@@H](C)O)C(C)C)C(C)C` [melittin], the Kd on Pf CaM [6] (K d, one set of sites model, upper limit) is less than 0.03 µM.

With `O=C(Nc1ccc(F)c(Cl)c1)Nc1ccc(Cl)c(Cl)c1` [MMV665953], the “inhibition of Pf CaM function in CaN activity assay” value (“inhibition of Pf CaM function” for short) at Pf CaM [7] is given as “showed inhibitory effect”.

Consider `Cl.N=c1n(CCN2CCCCC2)c2ccccc2n1CC(O)c1cccc(Br)c1` (stereo not shown) [MMV665902], for which the “inhibition of Pf CaM function” value on Pf CaM [7] is on record as “showed inhibitory effect”.

In the case of `OC(CNCC1CCCO1)Cn1c2ccc(Cl)cc2c2cc(Cl)ccc21` (stereo not shown) [MMV396736], the IC50 was found to be 6.2 ± 1.5 µM on Pf CaM [7] and 1.6 ± 0.76 µM at human CaM [10]. Also, the “inhibition of Pf CaM function” value at Pf CaM [7] is given as “showed inhibitory effect”. Also, the Kd in series [8] amounted to 1.8 ± 0.4 µM; on human CaM [9], 2.5 ± 0.5 µM; on Pf CaM [6] (25°C, 1 mmol/L CaCl2, one set of sites model, read-out: K d), 2.5 ± 0.2 µM; on dansyl-labeled Pf CaM it was 2.4 ± 0.4 µM. For the same molecule, the EC50 in series [11] was 1.06 µM. Moreover, the stoichiometry n on Pf CaM [6] (one set of sites model) is ~ 8 and 7.4 ± 0.1.

For the molecule `O=C(NCC(c1ccsc1)N1CCCCCC1)c1ccc(C(F)(F)F)cc1` (stereo not shown) [MMV396672], on Pf CaM [7], the “inhibition of Pf CaM function” value is recorded as “showed inhibitory effect”.

In the case of “Pf CaCaM: Plasmodium falciparum calmodulin, Ca2+‐saturated form”, in [5], the “T m1” value stood at 92.6 ± 0.1 °C, the ΔH1 is listed as 47.8 ± 0.3 kcal/mol, the ΔHv1 worked out at 44.5 ± 0.3 kcal/mol and the “T m2” value is 125.9 ± 0.2 °C. In [5], the ΔH2 was found to be 97.9 ± 2.2 kcal/mol and the ΔHv2 is listed as 65.7 ± 0.8 kcal/mol.
